Patent publication US20060270599A1, “Inhibiting angiogenesis using molecules that enhance plasmin formation or prolong plasmin activity” (Crossbeta Biosciences B.V., priority 2000, published 2006)

How the values were obtained:
[1] = target: tPA-mediated plasmin formation from plasminogen (Homo sapiens, UniProt P00750); assay: Measurement of plasmin activity (tPA-mediated plasmin generation, S-2251); assay type: biochemical; details: 50 μg/ml plasminogen, 30 U/ml tPA, 37° C. (FIG. 3)
Method: FIG. 3: Effect on plasmin activity of (A) endostatin, (B) human vitronectin fragment+(a.a. 262-367) (SEQ ID NO:1), (C) FDP, and (D) peptide derived from FDP (a.a. 148-160) (SEQ ID NO: 2).
Effect of FDP, FDP-derived synthetic peptide (a.a. 148-160) (SEQ ID NO:2), fragment (a.a. 262-367) vitronectin (SEQ ID NO:1), and endostatin on plasmin generation. Various concentrations were added.
Reactions were performed at 37° C. in HBS buffer (20 mM Hepes, 4 mM KCl, 137 mM NaCl, 3 mM CaCl2, 0.1% BSA, pH 7.4) containing 50 μg/ml plasminogen with or without the addition of endostatin or FDP. The reactions were started by the addition of tPA at a final concentration of 30 U/ml. At several time points, 20 μl samples were taken and stopped with 20 μl buffer containing 150 mM εACA and 150 mM EDTA. Plasmin activity was determined in 96-well plates after the addition of 20 μl chromogenic substrate S-2251 at a final concentration of 1.6 mM. Increase in absorbance was measured at 405 nm for 10 min.

[2] = system: mouse C26 colon carcinoma; assay: Subcutaneous tumor growth of mouse C26 colon carcinoma; assay type: in vivo; details: BALB/c mice, eleven days after tumor cell inoculation, mean ± standard error of the mean, control 2719±366
Method: FIG. 1: Effect of fibrin degradation products (FDP) on tumor growth. For comparison, treatments with Alteplase® (recombinant tPA) or endostatin is shown. FDP was given continuously using Alzet® pumps (Alza, Palo Alto, Calif., USA, type 2001 or 2002) loaded with 200 μl FDP (5 mg/ml). In addition, every other day, FDP was given subcutaneously at a dose of 7 mg/kg.
A model of subcutaneous tumor growth of a mouse C26 colon carcinoma was used to evaluate the effects of FDP. Eleven days after tumor cell inoculation, tumors of the control group had reached a volume of 2719±366 mm^3. In mice treated with FDP, the mean tumor growth was 719±188 mm^3. […] Treatment with tPA, which generates plasmin, suppressed tumor growth to a similar degree (tumor volume 492±215 mm^3) as FDP.
The mouse colon adenocarcinoma cell line C-26 was maintained as a monolayer culture in Dulbecco's Minimal Essential Medium (DMEM) supplemented with 10% heat-inactivated fetal calf serum, penicillin (100 units/ml), and streptomycin (100 μg/ml) in a 5% CO2 environment. […] The presence of single cell suspension was confirmed by phase contrast microscopy, and cell viability was determined by trypan blue staining. […]
The statistical significance of differences between groups was calculated by applying Student's 2-tailed t-test. […]

B1: endostatin: Recombinant murine endostatin produced by Escherichia coli (protein, UniProt P39061 1591-1774, looked up)
Endostatin: HTHQDFQPVLHLVALNTPLSGGMRGIRGADFQCFQQARAVGLSGTFRAFLSSRLQDLYSIVRRADRGSVPIVNLKDEVLSPSWDSLFSGSQGQLQPGARIFSFDGRDVLRHPAWPQKSVWHGSDPSGRRLMESYCETWRTETTGATGQASSLLSGRLLEQKAASCHNSYIVLCIENSFMTSFSK
modifications: Endostatin
notes: Recombinant murine endostatin produced by Escherichia coli
[1]
  stimulation of tPA-mediated plasmin formation: ability to stimulate tPA-mediated plasmin formation
[2]
  tumor volume: 1112±372 mm^3

B2: tPA: Alteplase (recombinant tPA), tissue plasminogen activator (protein, UniProt P00750 36-562, looked up)
Tissue-type plasminogen …: SYQVICRDEKTQMIYQQHQSWLRPVLRSNRVEYCWCNSGRAQCHSVPVKSCSEPRCFNGGTCQQALYFSDFVCQCPEGFAGKCCEIDTRATCYEDQGISYRGTWSTAESGAECTNWNSSALAQKPYSGRRPDAIRLGLGNHNYCRNPDRDSKPWCYVFKAGKYSSEFCSTPACSEGNSDCYFGNGSAYRGTHSLTESGASCLPWNSMILIGKVYTAQNPSAQALGLGKHNYCRNPDGDAKPWCHVLKNRRLTWEYCDVPSCSTCGLRQYSQPQFRIKGGLFADIASHPWQAAIFAKHRRSPGERFLCGGILISSCWILSAAHCFQERFPPHHLTVILGRTYRVVPGEEEQKFEVEKYIVHKEFDDDTYDNDIALLQLKSDSSRCAQESSVVRTVCLPPADLQLPDWTECELSGYGKHEALSPFYSERLKEAHVRLYPSSRCTSQHLLNRTVTDNMLCAGDTRSGGPQANLHDACQGDSGGPLVCLNDGRMTLVGIISWGLGCGQKDVPGVYTKVTNYLDWIRDNMRP
[2]
  tumor volume: 492±215 mm^3
